# Tested on: PBMC
substance,measurement,value
IFNα,effect on overall PBMC culture viability,no effect

# Source: patent US8709448B2, “Anti-infective agents and uses thereof” (priority 2008, dated 2014)
